Assay results as given in PMC11531391 (Cell, 2024).
Numbering of substitutions follows the chain as printed. Where “and” joins values, the source holds several entries; their conditions need not be identical. Equal values may be shown once. Blank lines part the entries; values can stand above or below the molecule they belong to.

How the values were obtained:
[1] = biological target: L-TGF-β1 (latent TGF-β1 dimer, R249A, as it stands in L-TGF-β1/GARP) (human); assay: cryo-EM structure; purified L-TGF-β1/GARP or L-TGF-β3/GARP alone, 0.3 mg/ml
[2] = biological target: T1, L-TGF-β3/GARP (purified complex of latent TGF-β3 with the GARP ectodomain) (human, UniProt Q14392 20-627); assay: mass photometry; L-TGF-β3/GARP with αvβ8; TBS with 1 mM CaCl2, 1 mM MgCl2; conditions: both partners purified
T1 chain 1: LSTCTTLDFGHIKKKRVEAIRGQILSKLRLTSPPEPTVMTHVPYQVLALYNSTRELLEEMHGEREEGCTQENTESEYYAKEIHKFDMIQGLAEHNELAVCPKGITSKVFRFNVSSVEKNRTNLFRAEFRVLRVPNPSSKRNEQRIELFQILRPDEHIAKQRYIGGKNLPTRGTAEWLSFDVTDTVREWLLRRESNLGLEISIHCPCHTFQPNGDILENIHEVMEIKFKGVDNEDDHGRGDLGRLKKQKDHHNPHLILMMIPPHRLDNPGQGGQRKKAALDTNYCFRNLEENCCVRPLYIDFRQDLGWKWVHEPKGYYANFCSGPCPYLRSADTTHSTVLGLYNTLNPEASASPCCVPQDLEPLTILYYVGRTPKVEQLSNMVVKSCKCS
T1 chain 2: T1 chain 1 with D240E
T1 chain 3: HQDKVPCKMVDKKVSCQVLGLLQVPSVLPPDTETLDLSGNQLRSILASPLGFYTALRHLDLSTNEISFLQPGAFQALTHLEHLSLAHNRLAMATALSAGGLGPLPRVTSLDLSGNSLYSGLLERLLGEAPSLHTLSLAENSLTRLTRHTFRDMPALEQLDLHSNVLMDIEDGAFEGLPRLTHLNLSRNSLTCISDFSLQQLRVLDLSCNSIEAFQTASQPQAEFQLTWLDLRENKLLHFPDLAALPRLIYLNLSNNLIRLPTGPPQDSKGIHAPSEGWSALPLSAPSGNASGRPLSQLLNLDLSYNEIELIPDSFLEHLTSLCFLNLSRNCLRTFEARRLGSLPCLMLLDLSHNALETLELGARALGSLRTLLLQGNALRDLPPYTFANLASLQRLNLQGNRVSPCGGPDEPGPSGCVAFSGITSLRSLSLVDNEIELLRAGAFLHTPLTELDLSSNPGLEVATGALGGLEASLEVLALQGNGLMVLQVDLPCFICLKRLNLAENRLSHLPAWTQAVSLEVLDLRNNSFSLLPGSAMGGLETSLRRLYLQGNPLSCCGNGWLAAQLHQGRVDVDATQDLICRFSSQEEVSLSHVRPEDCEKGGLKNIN

[3] = biological target: L-TGF-β1/GARP (secreted complex of latent TGF-β1 with the GARP ectodomain) (human) (UniProt Q14392); assay: mass photometry + cryo-EM structure; L-TGF-β1/GARP mixed with recombinant αvβ8 ectodomain at 1:1 molar ratio; mass photometry in TBS with 1 mM CaCl2, 1 mM MgCl2

stoichiometry N [1]: 2
Molecule: L-TGF-β1 (latent TGF-β1 dimer, R249A, as it stands in L-TGF-β1/GARP) (natural protein)

stoichiometry N [2]: 1 and 2
stoichiometry N [3]: 1 and 2
B1: secreted ectodomain of αvβ8 integrin (receptor)
chain 1: FNLDVDSPAEYSGPEGSYFGFAVDFFVPSASSRMFLLVGAPKANTTQPGIVEGGQVLKCDWSSTRRCQPIEFDATGNRDYAKDDPLEFKSHQWFGASVRSKQDKILACAPLYHWRTEMKQEREPVGTCFLQDGTKTVEYAPCRSQDIDADGQGFCQGGFSIDFTKADRVLLGGPGSFYWQGQLISDQVAEIVSKYDPNVYSIKYNNQLATRTAQAIFDDSYLGYSVAVGDFNGDGIDDFVSGVPRAARTLGMVYIYDGKNMSSLYNFTGEQMAAYFGFSVAATDINGDDYADVFIGAPLFMDRGSDGKLQEVGQVSVSLQRASGDFQTTKLNGFEVFARFGSAIAPLGDLDQDGFNDIAIAAPYGGEDKKGIVYIFNGRSTGLNAVPSQILEGQWAARSMPPSFGYSMKGATDIDKNGYPDLIVGAFGVDRAILYRARPVITVNAGLEVYPSILNQDNKTCSLPGTALKVSCFNVRFCLKADGKGVLPRKLNFQVELLLDKLKQKGAIRRALFLYSRSPSHSKNMTISRGGLMQCEELIAYLRDESEFRDKLTPITIFMEYRLDYRTAADTTGLQPILNQFTPANISRQAHILLDCGEDNVCKPKLEVSVDSDQKKIYIGDDNPLTLIVKAQNQGEGAYEAELIVSIPLQADFIGVVRNNEALARLSCAFKTENQTRQVVCDLGNPMKAGTQLLAGLRFSVHQQSEMDTSVKFDLQIQSSNLFDKVSPVVSHKVDLAVLAAVEIRGVSSPDHVFLPIPNWEHKENPETEEDVGPVVQHIYELRNNGPSSFSKAMLHLQWPYKYNNNTLLYILHYDIDGPMNCTSDMEINPLRIKISSLQTTEKNDTVAGQGERDHLITKRDLALSEGDIHTLGCGVAQCLKIVCQVGRLDRGKSAILYVKSLLWTETFMNKENQNHSYSLKSSASFNVIEFPYKNLPIEDITNSTLVTTNVTWGIQPAPMPV
chain 2: EDNRCASSNAASCARCLALGPECGWCVQEDFISGGSRSERCDIVSNLISKGCSVDSIEYPSVHVIIPTENEINTQVTPGEVSIQLRPGAEANFMLKVHPLKKYPVDLYYLVDVSASMHNNIEKLNSVGNDLSRKMAFFSRDFRLGFGSYVDKTVSPYISIHPERIHNQCSDYNLDCMPPHGYIHVLSLTENITEFEKAVHRQKISGNIDTPEGGFDAMLQAAVCESHIGWRKEAKRLLLVMTDQTSHLALDSKLAGIVVPNDGNCHLKNNVYVKSTTMEHPSLGQLSEKLIDNNINVIFAVQGKQFHWYKDLLPLLPGTIAGEIESKAANLNNLVVEAYQKLISEVKVQVENQVQGIYFNITAICPDGSRKPGMEGCRNVTSNDEVLFNVTVTMKKCDVTGGKNYAIIKPIGFNETAKIHIHRNCSCQCEDNRGPKGKCVDETFLDSKCFQCDENKCHFDEDQFSSESCKSHKDQPVCSGRGVCVCGKCSCHKIKLGKVYGKYCEKDDFSCPYHHGNLCAGHGECEAGRCQCFSGWEGDRCQCPSAAAQHCVNSKGQVCSGRGTCVCGRCECTDPRSIGRFCEHCPTCYTACKENWNCMQCLHPHNLSQAILDQCKTSCALMEQQHYVDQTSECFSSPSYLR
notes: integrin αv, truncated (αvtr pcDM8), secreted ectodomain; integrin β8, truncated (β8tr), secreted ectodomain; also called αvβ8tr; truncated αvβ8 ectodomain; source: ExpiCHO, transfected, purified from supernatant (Protein G crosslinked with antibody 8B8, SEC on Superose 6)
